Measured values: patent US20250163130A1, “LIGAND GATED ION CHANNELS AND METHODS OF USE” (Trames Bio, Inc., priority 2022, published 2025)

Key:
Format in all cases: cell-based
CODA1237 = target: T1, CODA1237 (Homo sapiens, UniProt P36544, F159M/H163T/I152M/R155K/V154L/W156N/Y151P); experiment: Anion reporter (YFP quench) plate assay, ligand response of cells expressing CODA1237 compared with CODA71; details: FIG. 1, various ligand doses
T1 construct: expressed in transfected cells; host or cells: Lenti-X 293T (LX293T, Clontech) stably expressing mutant YFP (H148Q/I152L) reporter

[1] = test system: Lenti-X 293T cells expressing mutant YFP reporter; experiment: Anion reporter (YFP quench) plate assay, responsiveness of engineered receptors to acetylcholine or TC-5619; details: FIG. 3, increasing doses of acetylcholine
HEK293T cells = test system: HEK293T cells

| Molecule | Responsiveness (percent quench of YFP fluorescence) of cells expressing CODA1237 compared with cells expressing CODA71 (CODA1237) | Responsiveness to acetylcholine (percent quench of YFP) using CODA71 as the reference point [1] | Surface expression level (mean fluorescent intensity of α-bungarotoxin staining positive cells) (HEK293T cells) | Percentage of surface expressing (α-bungarotoxin staining positive) cells (HEK293T cells) |
| --- | --- | --- | --- | --- |
| c1ccc(-c2nnc(O[C@@H]3C4CC5C[C@H]3CN(C5)C4)s2)cc1 [ABT-126] | more responsive | – | – | – |
| O=C(N[C@@H]1CN2CCC1CC2)c1n[nH]c2ccccc12 [RG3487] | more responsive | – | – | – |
| CODA1344: α7-nAChR LBD: GlyRα3 isoform L IPD, SEQ ID NO: 63 (protein, CHRNA7/GLRA3 isoform L) MRCSPGGVWLALAASLLHVSLQGEFQRKLYKELVKNYNPLERPVANDSQPLTVYFSLSLLQIMDVDEKNQVLTTNIWLQMSWTDHYLQWNVSEYPGVKTVRFPDGQIWKPDILLYNSADERFDATFHTNVLVNSSGHCQYLPPGIFKSSCYIDVRWFPFDVQHCKLKFGSWSYGGWSLDLQMQEADISGYIPNGEWDLVGIPGKRSERFYECCKEPYPDVTFTVTMRRRMGYYLIQMYIPSLLIVILSWVSFWINMDAAPARVALGITTVLTMTTQSSGSRASLPKVSYVKAIDIWMAVCLLFVFSALLEYAAVNFVSRQHKELLRFRRKRKNKTEAFALEKFYRFSDMDDEVRESRFSFTAYGMGPCLQAKDGMTPKGPNHPVQVMPKSPDEMRKVFIDRAKKIDTISRACFPLAFLIFNIFYWVIYKILRHEDIHQQQD | – | lower responsiveness | – | – |
| CODA1298: α7-nAChR(Gly-cys) LBD: GlyRα2 IPD, SEQ ID NO: 65 comprising T225I mutation (protein, CHRNA7 (Cys-loop)/GLRA2) MRCSPGGVWLALAASLLHVSLQGEFQRKLYKELVKNYNPLERPVANDSQPLTVYFSLSLLQIMDVDEKNQVLTTNIWLQMSWTDHYLQWNVSEYPGVKTVRFPDGQIWKPDILLYNSADERFDATFHTNVLVNSSGHCQYLPPGIFKSSCPMDLKNFPMDVQTCKLKFGSWSYGGWSLDLQMQEADISGYIPNGEWDLVGIPGKRSERFYECCKEPYPDVTFTVIMRRRMGYYLIQMYIPSLLIVILSWVSFWINMDAAPARVALGITTVLTMTTQSSGSRASLPKVSYVKAIDIWMAVCLLFVFAALLEYAAVNFVSRQHKEFLRLRRRQKRQNKEEDVTRESRFNFSGYGMGHCLQVKDGTAVKATPANPLPQPPKDGDAIKKKFVDRAKRIDTISRAAFPLAFLIFNIFYWITYKIIRHEDVHKK | – | – | improves the surface expression level | – |
| CODA1237: α7-nAChR(Gly-cys) LBD: GlyRα2 IPD, SEQ ID NO: 65 (protein, CHRNA7 (Cys-loop)/GLRA2) MRCSPGGVWLALAASLLHVSLQGEFQRKLYKELVKNYNPLERPVANDSQPLTVYFSLSLLQIMDVDEKNQVLTTNIWLQMSWTDHYLQWNVSEYPGVKTVRFPDGQIWKPDILLYNSADERFDATFHTNVLVNSSGHCQYLPPGIFKSSCPMDLKNFPMDVQTCKLKFGSWSYGGWSLDLQMQEADISGYIPNGEWDLVGIPGKRSERFYECCKEPYPDVTFTVTMRRRMGYYLIQMYIPSLLIVILSWVSFWINMDAAPARVALGITTVLTMTTQSSGSRASLPKVSYVKAIDIWMAVCLLFVFAALLEYAAVNFVSRQHKEFLRLRRRQKRQNKEEDVTRESRFNFSGYGMGHCLQVKDGTAVKATPANPLPQPPKDGDAIKKKFVDRAKRIDTISRAAFPLAFLIFNIFYWITYKIIRHEDVHKK | – | – | higher surface expression | – |
| CODA1343: α7-nAChR(Gly-cys) LBD: GlyRα3 isoform K IPD, SEQ ID NO: 71 (protein, CHRNA7_(Cys-loop)/GLRA3 isoform K) MRCSPGGVWLALAASLLHVSLQGEFQRKLYKELVKNYNPLERPVANDSQPLTVYFSLSLLQIMDVDEKNQVLTTNIWLQMSWTDHYLQWNVSEYPGVKTVRFPDGQIWKPDILLYNSADERFDATFHTNVLVNSSGHCQYLPPGIFKSSCPMDLKNFPMDVQTCKLKFGSWSYGGWSLDLQMQEADISGYIPNGEWDLVGIPGKRSERFYECCKEPYPDVTFTVTMRRRMGYYLIQMYIPSLLIVILSWVSFWINMDAAPARVALGITTVLTMTTQSSGSRASLPKVSYVKAIDIWMAVCLLFVFSALLEYAAVNFVSRQHKELLRFRRKRKNKDDEVRESRFSFTAYGMGPCLQAKDGMTPKGPNHPVQVMPKSPDEMRKVFIDRAKKIDTISRACFPLAFLIFNIFYWVIYKILRHEDIHQQQD | – | higher responsiveness | higher surface expression | higher percentage of surface expressing cells |
| CODA1345: α7-nAChR LBD: GlyRα3 isoform K IPD, SEQ ID NO: 70 (protein, CHRNA7/GLRA3 isoform K) MRCSPGGVWLALAASLLHVSLQGEFQRKLYKELVKNYNPLERPVANDSQPLTVYFSLSLLQIMDVDEKNQVLTTNIWLQMSWTDHYLQWNVSEYPGVKTVRFPDGQIWKPDILLYNSADERFDATFHTNVLVNSSGHCQYLPPGIFKSSCYIDVRWFPFDVQHCKLKFGSWSYGGWSLDLQMQEADISGYIPNGEWDLVGIPGKRSERFYECCKEPYPDVTFTVTMRRRMGYYLIQMYIPSLLIVILSWVSFWINMDAAPARVALGITTVLTMTTQSSGSRASLPKVSYVKAIDIWMAVCLLFVFSALLEYAAVNFVSRQHKELLRFRRKRKNKDDEVRESRFSFTAYGMGPCLQAKDGMTPKGPNHPVQVMPKSPDEMRKVFIDRAKKIDTISRACFPLAFLIFNIFYWVIYKILRHEDIHQQQD | – | – | higher surface expression | higher percentage of surface expressing cells |
